From patent US9469841B2, “Prodrug activation in cancer cells using molecular switches” (The Johns Hopkins University, priority 2008, dated 2016)
Where two headings read alike, the source gives them in different places.

Assays:
MBP317-347 = assay: Effect of beta-cyclodextrin on maltose activation of switch MBP317-347; format: biochemical
Protocol: The rate of beta-lactam hydrolysis as a function of maltose (dots) follows the maltose-binding isotherm (blue). […] Initially, in the absence of any ligand, the rate of beta-lactam hydrolysis catalyzed by the switch is low. At about 5 minutes, maltose is added and the enzyme activity of the switch is turned on. At about 10 minutes, an excess of beta-cyclodextrin is added. This replaces maltose in the binding site and turns the enzyme activity of the switch off. At about 16 minutes, an excess of maltose is added which replaces beta-cyclodextrin and turns the enzyme activity of the switch back on.
Natural allosteric proteins often have modest (<10-fold) differences in function between the effector-bound and effector-unbound states. However very large differences in activity between the two states would be advantageous for many applications of protein switches. […] Using an iterative strategy involving random circular permutation and random insertion several switches were created that approach being on/off in nature (6). […] The creation of these switches was facilitated by a new directed evolution algorithm for non-homologous recombination that was developed for efficiently exploring the sequence space comprised of the possible fusions of the two proteins. […]

HIF-1a = HIF-1a (Homo sapiens, UniProt Q16665); settings: cited from earlier work
Chain of HIF-1a (Q16665 786-826 limits assumed): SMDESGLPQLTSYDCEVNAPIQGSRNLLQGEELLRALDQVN
Chain of HIF-1a (Q09472 331-417 partner limits assumed): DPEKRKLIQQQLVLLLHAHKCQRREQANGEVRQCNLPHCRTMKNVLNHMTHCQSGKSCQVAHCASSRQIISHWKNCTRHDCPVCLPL

GIA39 E. coli cells = assay: Growth on "negative selection" minimal plates supplemented with 5FC; format: cell-based; design: key: + = growth; − = no growth
Protocol: Minimal media was used in the selection schemes and was based on a product mixture described by Sigma. For 1 L it containing 20 g of Select Agar (Sigma# A5054), 6.7 g of Yeast nitrogen base without amino acids (Sigma #Y0626), 1.92 g of Yeast synthetic drop-out without uracil (Sigma #Y1501), glucose to 2%, 1 mM IPTG and 50 μg/mL of chloramphenicol. For “negative” selection media, the above media was supplemented with 75 μg/mL or 25 μg/mL of 5FC and 1 μg/mL of uracil. For “positive” selection media, supplementation was with 25 μg/mL of cytosine, 1 mM arabinose and 100 μg/mL of ampicillin Each Bio-Assay dish contained 250 mL of selection media and each standard Petri dish contained 25 mL of media.
The selection scheme was developed to isolate library members whose CD activity is “off” in the absence of HIF-1a but “on” in the presence of HIF-1a. […] A GST-HIF-1a fusion was created that is under the control of the arabinose promoter on a plasmid that can coexist with the pDIM-C8 library plasmids. This “HIF-1a plasmid” is a variation of the pGEX plasmid and has ampicillin resistance. During selections, this HIF-1a plasmid will either be present to produce HIF-1a and activate the hybrid protein switches, or absent to avoid any production of HIF-1a.
During the negative selection, no HIF-1a plasmid was present in the cells. Thus, hybrids that are active in the absence of HIF-1a will convert the 5FC into 5FU and kill the cell. But, hybrids that are not active in the absence of HIF-1a will be able to use the minimal amount of uracil provided and grow to form colonies. The negative selection was performed twice in succession using the Bio-Assay dish size plates (2 plates each time with about 600,000 cells plated on each plate). The first time the negative selection media contained 75 μg/mL 5FC. The colonies that grew on this plated were recovered and then underwent a second negative selection to help ensure that any pDIM-C8 plasmids encoding a wild-type yCD were removed from the library. The second negative selection was performed the same as the first except that 25 μg/mL of 5FC was used. The cells that survived the second negative selection were harvested and then aliquoted. One aliquot was used to isolate library plasmids that were used in the positive selection that followed.
This experiment confirmed that the switch genes conferred sensitivity to 5FC depends on induction of expression of HIF1-a (see Table 2, below).
Cells harboring the switch genes in pDIM-C8 or cells with the same plasmid together with the HIF1-a plasmid were plated on minimal media plates supplemented with 5FC (i.e. the negative selection conditions). […]

E. coli cells = assay: MIC of ampicillin for E. coli cells expressing switch, with and without maltose; format: cell-based; settings: E. coli cells expressing MBP or BLA separately

## OC[C@H]1O[C@@H]2O[C@H]3[C@H](O)[C@@H](O)[C@@H](O[C@H]4[C@H](O)[C@@H](O)[C@@H](O[C@H]5[C@H](O)[C@@H](O)[C@@H](O[C@H]6[C@H](O)[C@@H](O)[C@@H](O[C@H]7[C@H](O)[C@@H](O)[C@@H](O[C@H]8[C@H](O)[C@@H](O)[C@@H](O[C@H]1[C@H](O)[C@H]2O)O[C@@H]8CO)O[C@@H]7CO)O[C@@H]6CO)O[C@@H]5CO)O[C@@H]4CO)O[C@@H]3CO [beta-cylcodextrin, beta-cyclodextrin]
MBP317-347
  Effect on maltose activation of the switch: antagonist preventing maltose-activation

## CH1 domain: CH1 domain of p300, 100 amino acids, binds HIF-1a
HIF-1a; in vitro at 25° C., read-out: dissociation constant of the CH1 domain and HIF-1a
  Kd: ~120 nM
HIF-1a; minimal domains CH1 and C-TAD of HIF-1a, read-out: Kd
  Kd: 120 nM

B1: yCD: yeast cytosine deaminase containing the A23L/V108I/I140L mutations; positive control (protein, UniProt Q12178 1-158, looked up, variant A23L V108I I140L)
Cytosine deaminase: MVTGGMASKWDQKGMDIAYEEALLGYKEGGVPIGGCLINNKDGSVLGRGHNMRFQKGSATLHGEISTLENCGRLEGKVYKDTTLYTTLSPCDMCTGAIIMYGIPRCVIGENVNFKSKGEKYLQTRGHEVVVVDDERCKKLMKQFIDERPQDWFEDIGE
GIA39 E. coli cells; w/ HIF1-a plasmid, 1 mM arabinose
  Growth on "negative selection" minimal plates supplemented with 75 μg/ml 5FC: −
GIA39 E. coli cells; w/ HIF1-a plasmid, No arabinose
  Growth on "negative selection" minimal plates supplemented with 75 μg/ml 5FC: −
GIA39 E. coli cells; w/o HIF1-a plasmid, 1 mM arabinose
  Growth on "negative selection" minimal plates supplemented with 75 μg/ml 5FC: −
GIA39 E. coli cells; w/o HIF1-a plasmid, No arabinose
  Growth on "negative selection" minimal plates supplemented with 75 μg/ml 5FC: −

B2: BLA: the enzyme TEM-1 beta-lactamase (protein, UniProt P62593 24-286, looked up)
Beta-lactamase TEM: HPETLVKVKDAEDQLGARVGYIELDLNSGKILESFRPEERFPMMSTFKVLLCGAVLSRVDAGQEQLGRRIHYSQNDLVEYSPVTEKHLTDGMTVRELCSAAITMSDNTAANLLLTTIGGPKELTAFLHNMGDHVTRLDRWEPELNEAIPNDERDTTMPAAMATTLRKLLTGELLTLASRQQLIDWMEADKVAGPLLRSALPAGWFIADKSGAGERGSRGIIAALGPDGKPSRIVVIYTTGSQATMDERNRQIAEIGASLIKHW
E. coli cells
  Effect of maltose on MIC of ampicillin: not affect by maltose
